According to PMC6824469:
Residue numbers refer to the chain shown, from its start.

B1: substrate-4 (RNA-4/Cy5 DNA) (DNA:RNA)
DNA 1: GGCACCAACACAAAACACATCTACACUCAACAAUCACUUU
DNA 2: GTAGATGTGTTTTGTGTTGGTGCC
modifications: DNA at nt 17-24 of strand 1 (proximal end of duplex)
B2: substrate-5 (RNA-5/Cy5 DNA) (DNA:RNA)
RNA: B1 DNA 1 with T20U, T22U
DNA: GTAGATGTGTTTTGTGTTGGTGCC
modifications: DNA at nt 9-16 of strand 1 (middle of duplex)
B3: substrate-1 (RNA-1/Cy5 DNA) (DNA:RNA)
RNA: GGCACCAACACAAAACACAUCUACACUCAACAAU
DNA: GTAGATGTGTTTTGTGTTGGTGCC

Biological target: Prp43p (rPrp43p);Ntr1p (1-120) (Saccharomyces cerevisiae (budding …, UniProt P53131;Q06411 1-767;1-120, |))
Sequence (P53131 whole entry, chain 1 of 2): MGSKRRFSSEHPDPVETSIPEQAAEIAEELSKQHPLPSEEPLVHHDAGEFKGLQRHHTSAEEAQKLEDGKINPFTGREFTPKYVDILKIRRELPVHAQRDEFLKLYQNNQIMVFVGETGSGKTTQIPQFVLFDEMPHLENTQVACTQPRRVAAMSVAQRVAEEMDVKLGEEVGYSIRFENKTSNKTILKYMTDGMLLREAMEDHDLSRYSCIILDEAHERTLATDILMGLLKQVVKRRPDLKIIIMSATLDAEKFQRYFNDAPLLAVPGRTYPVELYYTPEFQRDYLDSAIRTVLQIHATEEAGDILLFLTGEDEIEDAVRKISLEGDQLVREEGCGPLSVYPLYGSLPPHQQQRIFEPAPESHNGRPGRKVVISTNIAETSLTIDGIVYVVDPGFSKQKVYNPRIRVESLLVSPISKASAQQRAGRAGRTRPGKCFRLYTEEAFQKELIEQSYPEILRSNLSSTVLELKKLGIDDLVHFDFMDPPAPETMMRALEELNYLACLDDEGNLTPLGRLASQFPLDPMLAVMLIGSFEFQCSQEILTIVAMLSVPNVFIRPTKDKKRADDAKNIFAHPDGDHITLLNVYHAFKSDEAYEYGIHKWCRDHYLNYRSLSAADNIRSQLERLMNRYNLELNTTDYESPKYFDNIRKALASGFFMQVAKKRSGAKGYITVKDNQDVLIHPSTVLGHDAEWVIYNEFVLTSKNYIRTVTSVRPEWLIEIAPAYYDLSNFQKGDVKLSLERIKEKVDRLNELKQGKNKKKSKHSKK
Sequence (Q06411 1-120, chain 2 of 2): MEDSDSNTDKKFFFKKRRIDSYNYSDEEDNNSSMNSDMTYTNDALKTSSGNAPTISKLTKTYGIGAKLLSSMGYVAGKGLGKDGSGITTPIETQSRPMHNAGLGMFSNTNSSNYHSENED
Assay: EMSA

Binding result, binds:
B1, B2, B3
